For one data set, the target named is Cys333 (UniProt position 333, PIMASCGTGVT). The data set can be described thus: chemical modification (H2O2 inactivation) with activity readout. As to conditions: Not stated for the pH pre-incubation. The activity assay was at 25 °C.; Not stated (100 mM buffers); 100 mM sodium citrate, MES, phosphate or borate buffers for the pre-incubation. Activity assay in 30 mM Tris-HCl pH 8.0.; Reduced enzyme (DTT-reduced and desalted), 2 uM, no substrate during the 3 min pre-incubation.

The target in data set [1] is T1, STR2 (Arabidopsis thaliana, UniProt Q24JL3).
T1 construct: untagged, pET12a; E. coli BL21(DE3)
T1 sequence (Q24JL3 1-342 limits assumed): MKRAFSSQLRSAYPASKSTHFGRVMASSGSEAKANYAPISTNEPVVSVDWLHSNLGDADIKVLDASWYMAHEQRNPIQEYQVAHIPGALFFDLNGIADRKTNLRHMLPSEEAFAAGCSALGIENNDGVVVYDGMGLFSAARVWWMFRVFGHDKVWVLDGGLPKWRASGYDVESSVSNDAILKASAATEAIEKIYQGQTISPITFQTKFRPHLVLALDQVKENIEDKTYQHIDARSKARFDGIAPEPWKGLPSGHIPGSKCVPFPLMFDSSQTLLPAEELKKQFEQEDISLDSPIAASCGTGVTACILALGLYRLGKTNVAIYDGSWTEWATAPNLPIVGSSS
The data set can be described thus: intrinsic tryptophan fluorescence quenching. Format: binding.

Data set [2] has as its target T2, STR1 (Arabidopsis thaliana, UniProt O64530).
T2 construct: untagged (pET28a) or C-terminal His tag (used for Cys variants); E. coli BL21(DE3)
T2 sequence (O64530 57-379): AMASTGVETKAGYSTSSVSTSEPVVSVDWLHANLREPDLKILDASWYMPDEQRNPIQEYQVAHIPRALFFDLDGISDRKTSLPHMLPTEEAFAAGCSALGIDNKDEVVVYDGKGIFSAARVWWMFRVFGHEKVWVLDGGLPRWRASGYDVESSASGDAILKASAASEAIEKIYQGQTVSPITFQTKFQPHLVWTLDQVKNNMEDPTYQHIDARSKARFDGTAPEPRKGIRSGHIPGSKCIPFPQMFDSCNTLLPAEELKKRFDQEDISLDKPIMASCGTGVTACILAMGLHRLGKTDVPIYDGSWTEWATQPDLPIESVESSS
The data set can be described thus: intrinsic tryptophan fluorescence quenching. Format: binding.

In data set [3] the target is T3, STR2 (Arabidopsis thaliana, UniProt Q24JL3, C298S).
T3 construct: untagged, pET12a; E. coli BL21(DE3)
T3 sequence (Q24JL3 1-342 C298S limits assumed): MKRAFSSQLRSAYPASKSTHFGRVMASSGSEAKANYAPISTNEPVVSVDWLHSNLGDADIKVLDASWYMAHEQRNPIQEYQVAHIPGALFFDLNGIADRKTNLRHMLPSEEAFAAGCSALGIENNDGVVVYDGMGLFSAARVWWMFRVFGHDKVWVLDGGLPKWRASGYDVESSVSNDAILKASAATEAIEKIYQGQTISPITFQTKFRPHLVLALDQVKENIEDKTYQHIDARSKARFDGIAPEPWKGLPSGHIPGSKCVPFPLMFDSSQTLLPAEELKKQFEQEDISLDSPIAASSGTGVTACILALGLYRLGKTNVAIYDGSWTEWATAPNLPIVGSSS
The data set is described as follows: intrinsic tryptophan fluorescence quenching. To be noted: 2 μM protein, 100-fold excess 3-MP, pH 8.0; catalytic Cys variant. Format: binding.

In data set [4] the target is T4, STR1 (Arabidopsis thaliana, UniProt O64530, C333S).
T4 construct: untagged (pET28a) or C-terminal His tag (used for Cys variants); E. coli BL21(DE3)
T4 sequence (O64530 57-379 C333S): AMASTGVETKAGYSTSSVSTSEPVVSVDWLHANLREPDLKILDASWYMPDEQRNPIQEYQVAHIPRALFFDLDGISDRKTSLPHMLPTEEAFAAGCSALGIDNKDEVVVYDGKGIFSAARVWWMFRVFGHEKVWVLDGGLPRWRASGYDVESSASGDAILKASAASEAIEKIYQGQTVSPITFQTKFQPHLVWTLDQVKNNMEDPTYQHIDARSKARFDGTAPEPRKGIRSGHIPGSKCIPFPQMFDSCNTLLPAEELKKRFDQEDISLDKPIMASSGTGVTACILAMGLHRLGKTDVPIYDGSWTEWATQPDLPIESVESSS
The data set can be described thus: intrinsic tryptophan fluorescence quenching. To be noted: 2 μM protein, 100-fold excess 3-MP, pH 8.0; catalytic Cys variant. Format: binding.

In a further data set the target is Cys298 (UniProt position 298, PIAASCGTGVT). The data set is described as follows: chemical modification (H2O2 inactivation) with activity readout. To be noted: Not stated for the pH pre-incubation. The activity assay was at 25 °C.; Not stated (100 mM buffers); 100 mM sodium citrate, MES, phosphate or borate buffers for the pre-incubation. Activity assay in 30 mM Tris-HCl pH 8.0.; Reduced enzyme (DTT-reduced and desalted), 2 uM, no substrate during the 3 min pre-incubation.

Another data set concerns Cys. To be noted: cited from earlier work.
Substrate in data set [5]: N[C@@H](CS)C(=O)O
The data set can be described thus: H2S release, methylene blue assay. The class given is biochemical, Arabidopsis thaliana. To be noted: apparent, sulfur acceptor, 250 μM 3-MP, pH 8.0, 25 °C. An excerpt:
(§1) H2S release, methylene blue assay on STR2

Substrate in data set [6]: O=C(O)C(=O)CS
The data set is described as follows: H2S release, methylene blue assay. Format: biochemical, Arabidopsis thaliana. As to conditions: apparent, sulfur donor, acceptor 10 μM TRXh1 with NADPH and NTRB, pH 8.0, 25 °C.
From the text: as §1

Substrate in data set [7]: N[C@@H](CS)C(=O)O
The data set is described as follows: H2S release, methylene blue assay. Format: biochemical, Arabidopsis thaliana. To be noted: apparent, sulfur acceptor, 250 μM 3-MP, pH 8.0, 25 °C. The source says: (§2) H2S release, methylene blue assay on STR1
This is another data set of the same source.

Substrate in data set [8]: O=C(O)C(=O)CS
The data set is described as follows: H2S release, methylene blue assay. The class given is biochemical, Arabidopsis thaliana. As to conditions: apparent, sulfur donor, acceptor 30 μM TRXo1 with NADPH and NTRB, pH 8.0, 25 °C.
From the text: as §2

Broadly, the pKa is the negative logarithm of the acid dissociation constant. One may read the Kd as the concentration at which binding is half-saturated. A lower Kd goes with tighter binding. What is called Km is the concentration of substrate that gives half-maximal velocity. What is called kcat is the number of substrate molecules converted per active site and unit of time at saturation. In general, kcat/Km refers to the second-order rate constant that governs catalysis at low substrate concentration.

Consider “Sulfurtransferase 1 (STR1), mitochondrial 3-mercaptopyruvate sulfurtransferase (Arabidopsis thaliana)”, for which the pKa with Cys333 is reported as 3.8 ± 0.1.

With `O=C(O)C(=O)CS` [3-MP], the equilibrium dissociation constant (Kd) on STR2 [1] turned out to be 0.7 ± 0.3 µM; at STR1 [2] it was 1.3 ± 0.9 µM. In addition, the “intrinsic tryptophan fluorescence quenching” value on STR2 [3] and on STR1 [4] was “intrinsic fluorescence of both variants also decreased after addition of 3-MP” each time.

In the case of “Sulfurtransferase 2 (STR2), cytosolic 3-mercaptopyruvate sulfurtransferase (Arabidopsis thaliana)”, the pKa in the data set with Cys298 came to 4.0 ± 0.1.

As for “3-mercaptopyruvate sulfurtransferase (human MST) (Homo sapiens)”, the pKa in the data set on Cys is recorded as 5.2 ± 0.1.

B1: STR2 (Arabidopsis thaliana) (protein)
chain: MKRAFSSQLRSAYPASKSTHFGRVMASSGSEAKANYAPISTNEPVVSVDWLHSNLGDADIKVLDASWYMAHEQRNPIQEYQVAHIPGALFFDLNGIADRKTNLRHMLPSEEAFAAGCSALGIENNDGVVVYDGMGLFSAARVWWMFRVFGHDKVWVLDGGLPKWRASGYDVESSVSNDAILKASAATEAIEKIYQGQTISPITFQTKFRPHLVLALDQVKENIEDKTYQHIDARSKARFDGIAPEPWKGLPSGHIPGSKCVPFPLMFDSSQTLLPAEELKKQFEQEDISLDSPIAASCGTGVTACILALGLYRLGKTNVAIYDGSWTEWATAPNLPIVGSSS
notes: untagged, pET12a; E. coli BL21(DE3)
As for B1, the Km in data set [5] worked out at 1300 ± 70 µM; in data set [6] it was 377 ± 15 µM. For the same molecule, the turnover number (kcat) in data set [5] was determined as 1.5 s⁻¹; in data set [6], 9.7 s⁻¹.

B2: STR1 (Arabidopsis thaliana) (protein)
chain: AMASTGVETKAGYSTSSVSTSEPVVSVDWLHANLREPDLKILDASWYMPDEQRNPIQEYQVAHIPRALFFDLDGISDRKTSLPHMLPTEEAFAAGCSALGIDNKDEVVVYDGKGIFSAARVWWMFRVFGHEKVWVLDGGLPRWRASGYDVESSASGDAILKASAASEAIEKIYQGQTVSPITFQTKFQPHLVWTLDQVKNNMEDPTYQHIDARSKARFDGTAPEPRKGIRSGHIPGSKCIPFPQMFDSCNTLLPAEELKKRFDQEDISLDKPIMASCGTGVTACILAMGLHRLGKTDVPIYDGSWTEWATQPDLPIESVESSS
notes: untagged (pET28a) or C-terminal His tag (used for Cys variants); E. coli BL21(DE3)
As to B2, in data set [7], the Km was found to be 2200 ± 400 µM, the kcat was 3.9 s⁻¹ and the specificity constant (kcat/Km) was 1700 M⁻¹ s⁻¹. Further, in data set [8], the Michaelis-Menten constant (Km) came to 286 ± 5 µM, the turnover number (kcat) was determined as 13.5 s⁻¹ and the kcat/Km was 47000 M⁻¹ s⁻¹.

The values above are taken from PMC7995614, “Arabidopsis thaliana 3-mercaptopyruvate sulfurtransferases interact with and are protected by reducing systems” (The Journal of Biological Chemistry, 2021).
